Results from patent US11707527B2, “Nanoscale drug carrier capable of passing through blood-brain barrier” (KUNSHAN XINYUNDA BIOTECH CO., LTD., priority 2017, dated 2023).

Legend:
[1] = tested on: human BBB brain endothelial cells hCMEC/D3; assay: Endocytosis and lysosome co-localization in human brain endothelial cells (confocal microscopy); format: cell-based; conditions: hCMEC/D3, 4 h incubation
Experimental: Human BBB brain endothelial cells hCMEC/D3 slides (BD Biosciences) were placed in a 6-well plate (with well diameter of 34.8 mm, Corning, USA) for culturing above to a density of about 60%, then the experiment was conducted. 1 μM FITC-labeled H-ferritin above was added, and incubated respectively for 5 min and 6 min at 37° C. Then the cells were washed with 0.3% BSA/PBS for three times, and finally fixed with 4% paraformaldehyde. After being washed with PBS (pH7.4) for three times, cell nuclei were stained with DAPI (Roche Applied Science) 10 min at room temperature. After being washed by PBS for three times again, the slides were mounted with a mounting medium, and observed by laser confocal microscopy (Olympus FluoView FV-1000, Tokyo, Japan).
Human BBB brain endothelial cells hCMEC/D3 slides (BD Biosciences) were placed in a 6-well plate for culturing to a density of about 60%, and then the experiment was conducted. […] The cells were fixed with 4% paraformaldehyde after being washed with PBS for three times. Then 0.1% Triton X-100 was used for cell permeabilization After being washed with PBS again, the cells were blocked in 5% goat serum (ZSGB-BIO) 30 min at room temperature, and then incubated in Alexa Fluor®555-labeled antibodies and lysosome marker molecules LAMP1 (1:200, clone H4A3; Invitrogen) for 1 h at 37° C. […]

hCMEC/D3 BBB model = assay: In vitro BBB model (Transwell) transcytosis; format: in vitro ADME, human; conditions: 50 μg/mL FITC-labeled, 6 h, upper to lower chamber
Experimental: The cells were cultured at 37° C. under CO2 in an incubator to confluence (2-3d). After the confluence state of hCMEC/D3 was observed by a microscope, medium (EBM-2 medium) was added to an upper chamber of the Transwell plate, resulting a more than 0.5 cm difference of liquid level between the upper and lower chamberst. If an obvious difference between the two chambers can be still observed after 4 h, it was regarded as completely confluent. The wells of Transwell without inoculated cells were used as a blank control.
Equal amount (50 μg/mL) of FITC-labeled H-ferritins and the control FITC-labeled BSA were dissolved in EBM-2 medium (Gibco Life Technologies Inc., UK). […] The total volume (V) of the lower chamber was measured after being cultured for 6 h in a cell incubator. And then, 50 μL samples were respectively taken out of the lower chamber, and H-ferritin or BSA concentration (C) was measured by measuring fluorescence intensity (wavelength 488 nm). Afterwards, transcytosis efficiency was calculated according to the following formula: transcytosis efficiency %=(Clower chamber×Vlower chamber)/(Cinitial×Vinitial)×100%.

[2] = tested on: human BBB brain endothelial hCMEC/D3 cells; assay: Specific binding of FITC-labeled ferritin to human brain endothelial cells (flow cytometry); format: cell-based; conditions: 50 μg/ml FITC-labeled protein, 45 min, 4° C., hCMEC/D3, vs FITC-BSA
Experimental: Human BBB brain endothelial hCMEC/D3 cells were cultured to about 1×10^5 (100×20 mm, dish Corning, USA) and digested with trypsin, then the cells were washed with 0.3% (w/v) BSA/PBS (pH7.4) for three times. […] The cells were washed with 0.3% BSA/PBS for three times, finally resuspended in PBS (pH7.4). And fluorescence of the samples was tested by flow cytometry (at a wavelength of 488 nm).

B1: chimeric human H-ferritin: human L-ferritin with outer surface sequences replaced with SEQ ID NO: 1-3 of H-ferritin; SEQ ID NO: 7 (protein)
chain: MTSQVRQNYHQDSEAAINRQINLELYASYVYLSMSYYFDRDDVALEGVSHFFRELAEEKREGYERLLKMQNQRGGRIFLQDIKKPDCDDWESGLNAMECALHLEKNVNQSLLELHKLATDKNDPHLCDFLETHFLDEEVKLIKKMGDHVTNLRKMGAPESGLAEYLFERLTLKHD
modifications: chimeric human H ferritin
With B1 the “entering / co-localization with lysosome (LAMP1) in brain endothelial cells” value [1] was “did not co-localize with the lysosome”, the “crossing the in vitro BBB model (transcytosis efficiency)” value (hCMEC/D3 BBB model) was “can significantly cross the blood brain barrier” and the “specific binding with human brain endothelial cells” value [2] was “can still achieve specific binding”.
